In the supplement of paper PMC10724198:
± gives the standard deviation of the averaged measurements.

System: Saccharomyces cerevisiae
Experiment: protein stability index of tFT-peptide fusion (C-terminal peptide) (PSI (0-1 scale)); higher = more stable (slower turnover)
Conditions: genetic background: wild type; temperature: 30 C
Method: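 Multiplexed protein stability (MPS) profiling in S. cerevisiae. Random 12-aa peptides (tFT-X12 library) are fused to the C-terminus of a sfGFP-mCherry tandem fluorescent timer, after mCherry and a GGGS linker. Cells are FACS-sorted into 8 mCherry/sfGFP bins and deep-sequenced. The protein stability index (PSI) is the read-weighted bin average, scaled from 0 (unstable) to 1 (stable). Only peptides with >10 reads are reported; cells were grown at 30 °C in SC-His with glucose.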
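Also: PSI is a weighted mean of sequencing reads over stability bins, variants kept only with over 10 reads, mCherry proximal and sfGFP distal, peptide attached via GGGS linker.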

Sequence	protein stability index
RARTKGRMRTCR	0.749 ± 0.15
SSSVQSIPLPSA	0.71 ± 0.043
PPHTLTSTIRPN	0.73 ± 0.019
VFPPTPPTVPRG	0.727 ± 0.0077
GISLTVTVRGWL	0.496 ± 0.019
SFLGYAVFPYKG	0.6808 ± 0.0041
KTVKNGKEVKIH	0.635 ± 0.12
FGGGGGGGLLWC	0.739 ± 0.071
ESGTVINKNSNK	0.6661 ± 0.0054
PAAPPLGFTRTD	0.7 ± 0.0095
NQRCLRGKIVRC	0.633 ± 0.03
HITTNHLPTSCD	0.73 ± 0.039
PALPHQPLPRPQ	0.797 ± 0.023
GWVPCGSWRVPG	0.631 ± 0.038
WDGWPTRSGGTG	0.738 ± 0.023
PLPRTPTLPTPE	0.635 ± 0.036
GSTLWGMAGGAR	0.6985 ± 0.0056
RLGAELGQLRCC	0.66 ± 0.04
KDATVILSSRRR	0.745 ± 0.024
DIAYPRITDSRC	0.714 ± 0.045
LRGRYNDVRHGK	0.708 ± 0.053
LGLLGSLRTLSF	0.667 ± 0.14
GSVRCGLRVRVG	0.605 ± 0.047
FGWEGGEEMAGG	0.788 ± 0.0097
KGTKIGRPVRVI	0.689 ± 0.016

Sequence	protein stability index
GTGRGRAGARCK	0.679 ± 0.018
GLGRRPGVGGVR	0.71 ± 0.0075
RRYLREEDVQEK	0.696 ± 0.049
MNPSADYSIGAR	0.688 ± 0.062
PPLSAPPPSPSP	0.702 ± 0.065
APPLPPLFPPSP	0.677 ± 0.047
CLSYSVCPFWEA	0.807 ± 0.0087
SFSLSMFVTYSF	0.505 ± 0.03
AHSPPTRISPTH	0.75 ± 0.097
PPPRPDPPSLLD	0.545 ± 0.0085
LPHPPTPPLPRP	0.667 ± 0.078
GSGVGACRGVKV	0.685 ± 0.034
KKEKKVKKNRKR	0.729 ± 0.021
PPSLPPHASPTP	0.762 ± 0.079
PFFSFLYPRFYF	0.682 ± 0.0096
EFAYQSRYKVGR	0.694 ± 0.058
PRFFCSGSSPLR	0.721 ± 0.026
GGGVTRMQQRNG	0.6774 ± 0.002
GQPYTHASSSIG	0.685 ± 0.017
TEVSAPAPPCLW	0.6371 ± 0.0058
PPPPPLPPQLSH	0.756 ± 0.011
SRTVSLDYHFMS	0.7319 ± 0.00097
FPRHPPPFPRPT	0.681 ± 0.031
GWLASPHFPYAY	0.6883 ± 0.001
ASFLRPQMSLPF	0.618 ± 0.0095

Sequence	protein stability index
ETKKEETKRWRR	0.6789 ± 0.0025
ASPALPAPRSAP	0.704 ± 0.057
DAGVDVGVGTHD	0.605 ± 0.041
EGGARGCGEGSQ	0.656 ± 0.015
IGYSSIYKTTGT	0.668 ± 0.033
RSTPALRPVDLE	0.707 ± 0.049
GDVSYRWLRACT	0.6576 ± 0.00085
PRGHLDEFCVVL	0.705 ± 0.019
LRNWIGGTLGGG	0.7 ± 0.0095
LPISASLLSFPL	0.716 ± 0.048
DLVLVSSQMPFA	0.683 ± 0.039
PPPPRPPPALLP	0.736 ± 0.021
GGGVWGGVFFRL	0.647 ± 0.014
AVVRVSLPSTVV	0.667 ± 0.059
VKTSRASLSGKL	0.805 ± 0.12
SGSRFRTVRAPE	0.654 ± 0.032
TSKTLHKTNNIK	0.698 ± 0.028
YYVGLHSFSILQ	0.729 ± 0.076
PPALPRFPACTT	0.714 ± 0.056
HHPKTCHHLSRA	0.6853 ± 0.0037
TQARDTIPGAKV	0.678 ± 0.02
MKSSPFRASLDT	0.676 ± 0.094
LSSSWDLTHFDC	0.714 ± 0.033
GKINPKMEIWIE	0.7011 ± 0.0049
GECAELSSVGGG	0.664 ± 0.035

Sequence	protein stability index
GGGGGGWGGGVG	0.665 ± 0.021
IKPKKKEKKQEN	0.704 ± 0.046
RSINTETPSKNE	0.613 ± 0.056
PLPPSHPPTGPP	0.661 ± 0.012
KNKQSKNKSKRK	0.712 ± 0.038
KKKKKRKKKKEK	0.683 ± 0.044
RSARGRRGWALG	0.712 ± 0.022
PLPPPPRPPPNP	0.665 ± 0.01
AGCGGIWGVWVL	0.701 ± 0.072
RKKHKYNKKNGQ	0.666 ± 0.07
GVLEEVGPGLFL	0.78 ± 0.14
FKLVPCLGPSHF	0.741 ± 0.047
PLGDLGPRLRKP	0.669 ± 0.039
KKQKKHKKEKEK	0.638 ± 0.019
GALFRRACSLLF	0.697 ± 0.039
LLTSCLLSCCFR	0.671 ± 0.027
IAISAPSLLDTS	0.643 ± 0.026
VWGGGRGGGGKG	0.619 ± 0.031
GRRERSGKGKER	0.804 ± 0.14
GCVHDLGVISCQ	0.639 ± 0.011
SLTLVCRKYILL	0.633 ± 0.024
SRRVVDVGVIRV	0.635 ± 0.02
KKKKTKYIKRKK	0.701 ± 0.18
SESVGLCLGVTW	0.767 ± 0.05
VGGVVWIGGVVG	0.667 ± 0.074

Sequence	protein stability index
AGGSVGEAGSEG	0.649 ± 0.026
PSPPPTPPPFLP	0.71 ± 0.054
RLLHLMCFCSGP	0.644 ± 0.031
CHRLGRTTGRIR	0.692 ± 0.026
PSPPHPPPPLFP	0.706 ± 0.02
VCRCWGGKGQDS	0.71 ± 0.012
FGVHCSSPTSGG	0.6684 ± 0.0013
LFPIYFVCNYSA	0.508 ± 0.0075
RRMIKNVRRHKV	0.661 ± 0.075
VHRRRVSVGGGA	0.721 ± 0.05
MAWTGIDAEVCV	0.67 ± 0.028
VTDTFKFYCERL	0.7274 ± 0.0051
PLSPPPPTLPLP	0.714 ± 0.036
KRSGEGREKIRK	0.703 ± 0.028
GAGCRDSSRRRT	0.687 ± 0.037
VGSGEWTRAMNR	0.673 ± 0.062
LPSRLPPQPSPA	0.687 ± 0.071
WVGLGMSLRRAA	0.564 ± 0.062
NKDQKTKKNKRK	0.661 ± 0.075
FTGACRCLDGPR	0.669 ± 0.055
SGIEAGAELGVG	0.567 ± 0.011
FCCVAPLALPRM	0.686 ± 0.013
KKHEKVKSNTKR	0.666 ± 0.03
KYISKKKKEKKK	0.684 ± 0.06
FGPLFSEDTRKV	0.703 ± 0.076

Sequence	protein stability index
DGVRGDVVTGYL	0.7131 ± 0.0057
VCVSCTPALLFL	0.608 ± 0.056
YCMRPLCLEMFR	0.682 ± 0.016
GRSGWFGSEGVR	0.803 ± 0.12
LSYCLLALFFPL	0.501 ± 0.009
LSPDSLGVLVEY	0.6272 ± 0.0058
SDSSRRVFDVRR	0.705 ± 0.046
WVCCVGAGFLVV	0.594 ± 0.03
TRRKKKKNTGTK	0.71 ± 0.022
LPVPLFPLFLTS	0.573 ± 0.011
SVDPIFLNSGLG	0.693 ± 0.045
YYAGFTAFGSLA	0.709 ± 0.079
GAVGSPVEFGGR	0.688 ± 0.063
RPHTSPPPRHLY	0.61 ± 0.016
SCFVWAFRCWGF	0.621 ± 0.043
AVLPFFPCFSAF	0.69 ± 0.038
MFLPNPTLLTLN	0.559 ± 0.022
QRSGNEDWKDLL	0.888 ± 0.024
DCSCIYGHRVVV	0.6466 ± 0.0038
GRRPRRLNKDVQ	0.614 ± 0.025
PAPPPQSPAPYR	0.704 ± 0.049
